The results in this text go back to paper PMC6238609, “Secretory granule protein chromogranin B (CHGB) forms an anion channel in membranes” (Life Science Alliance, 2018).

Data set [1] concerns the molecule itself. Nature of the data set: SEC; partially purified CHGB in a Superose 6 column, earlier SEC step during purification. (In general: Size exclusion chromatography separates by hydrodynamic size, large species first.)
Data set [2] deals with the molecule itself. Description: SEC; purified CHGB in detergent (0.050% Triton X-100), Superose 6 10/30 column; single symmetric peak.

B1: recombinant murine chromogranin B (CHGB) (natural protein, mouse, UniProt P16014 21-677, looked up)
chain: APVDNRDHNEEMVTRCIIEVLSNALSKSSVPTITPECRQVLKKSGKEVKGEEKGENQNSKFEVRLLRDPADASGTRWASSREDAGAPVEDSQGQTKVGNEKWTEGGGHSREGVDDQESLRPSNQQASKEAKIYHSEERVGKEREKEEGKIYPMGEHREDAGEEKKHIEDSGEKPNTFSNKRSEASAKKKDESVARADAHSMELEEKTHSREQSSQESGEETRRQEKPQELTDQDQSQEESQEGEEGEEGEEGEEGEEDSASEVTKRRPRHHHGRSGSNKSSYEGHPLSEERRPSPKESKEADVATVRLGEKRSHHLAHYRASEEEPEYGEESRSYRGLQYRGRGSEEDRAPRPRSEESQEREYKRNHPDSELESTANRHGEETEEERSYEGANGRQHRGRGREPGAHSALDTREEKRLLDEGHYPVRESPIDTAKRYPQSKWQEQEKNYLNYGEEGDQGRWWQQEEQLGPEESREEVRFPDRQYEPYPITEKRKRLGALFNPYFDPLQWKNSDFEKRGNPDDSFLEDEGEDRNGVTLTEKNSFPEYNYDWWERRPFSEDVNWGYEKRSFARAPQLDLKRQYDGVAELDQLLHYRKKADEFPDFYDSEEQMGPHQEANDEKARADQRVLTAEEKKELENLAAMDLELQKIAEKFSQRG
notes: chromogranin B (CHGB), mouse; cDNA of the mouse CHGB gene (mChgb) cloned from a pcDNA3.1 plasmid into pFastBac 1; The protein needs Triton X-100-like detergents to stay soluble; also called mCHGB; mouse CHGB; source: sf9 cells (baculovirus), purified (Q-sepharose, ammonium sulfate, Ni-IDA, Superose 6 SEC) in Triton X-100
What is called stoichiometry N is a count of units in the complex or per binding partner. Consider B1, for which the “stoichiometry N” value in data set [1] amounted to 4; in data set [2] it was 2.
